Article PMC4856307, “A Hidden Transhydrogen Activity of a FMN-Bound Diaphorase under Anaerobic Conditions” (PLoS ONE, 2016)

Legend:
Assay in all cases: purified protein
Assay type in all cases: biochemical, Geobacillus stearothermophilus
purified protein [1] = substrate: NC(=O)C1=CN([C@@H]2O[C@H](COP(=O)(O)OP(=O)(O)OC[C@H]3O[C@@H](n4cnc5c(N)ncnc54)[C@H](O)[C@@H]3O)[C@@H](O)[C@H]2O)C=CC1; conditions: acceptor thio-NAD+; anaerobic (argon); 1x TBS pH 7.4, room temperature; pH 7.4
purified protein [2] = substrate: NC(=S)c1ccc[n+]([C@@H]2O[C@H](COP(=O)(O)OP(=O)(O)OC[C@H]3O[C@@H](n4cnc5c(N)ncnc54)[C@H](OP(=O)(O)O)[C@@H]3O)[C@@H](O)[C@H]2O)c1; conditions: hydride donor NAD(P)H; anaerobic (argon)
purified protein [3] = substrate: NC(=O)C1=CN([C@@H]2O[C@H](COP(=O)(O)OP(=O)(O)OC[C@H]3O[C@@H](n4cnc5c(N)ncnc54)[C@H](OP(=O)(O)O)[C@@H]3O)[C@@H](O)[C@H]2O)C=CC1; conditions: acceptor thio-NAD+; anaerobic (argon); 1x TBS pH 7.4, room temperature; pH 7.4
purified protein [4] = substrate: NC(=S)c1ccc[n+]([C@@H]2O[C@H](COP(=O)([O-])OP(=O)(O)OC[C@H]3O[C@@H](n4cnc5c(N)ncnc54)[C@H](O)[C@@H]3O)[C@@H](O)[C@H]2O)c1; conditions: hydride donor NAD(P)H; anaerobic (argon)

B1: FMN-bound diaphorase (FMN-DI, DI, GsDI) (Geobacillus stearothermophilus) (protein)
chain: MTKVLYITAHPHDDTQSYSMAVGKAFIETYKQVHPDHEVIHLDLYKEYIPEIDVDVFSGWGKLRSGKSFEELSDEEKAKVGRMNELCEQFISADKYVFVTPMWNFSFPPVLKAYIDAVAVAGKTFKYTEQGPVGLLTDKKALHIQARGGFYSEGPAAEMEMGHRYLSVIMQFFGVPSFEGLFVEGHAAMPEKAEEIKANAIARAKDLAHTF
notes: full length from 636-bp DNA fragment, E. coli BL21 Star (DE3), plasmid pET20b-Gsdi, Ni-resin purified (C-terminal His tag implied by reverse primer)
B1 was tested. Which Km (purified protein [1]) did it give?
The Km was 24 ± 3 µM.

And the kcat (purified protein [1])?
Its kcat is 1.64 ± 0.05 s⁻¹.

And the Km (purified protein [2])?
The Km was 4813 µM.

What about the kcat (purified protein [2]) of the same protein?
Its kcat is about 0.26 s⁻¹.

And the Km (purified protein [3])?
Its Km is 699 ± 49 µM.

What about the kcat (purified protein [3]) of the same protein?
Its kcat is 1.93 ± 0.06 s⁻¹.

What about the Km (purified protein [4]) of the same protein?
Its Km is 917 µM.

And the kcat (purified protein [4])?
The kcat was about 2.4 s⁻¹.
